# Experiments:
# [1] = test system: adult rat cardiac myocytes; assay: Inhibition of phenylephrine-induced spreading response of adult myocytes; format: cell-based; details: IFN-γ 500 U/ml, PE 10^−5 M, 72 hr
# Description: FIGS. 3A–3F Inhibition of phenylephedrine (PE)-induced spreading response by IFN-γ. Myocytes were pre-incubated with saline vehicle or IFN-γ (500 U/ml) on day of isolation. A second addition of vehicle or IFN-γ was performed 24h after isolation, along with the addition of either vehicle or PE (10^−5 M). After an additional 72 hr incubation, cells were fixed in glutaraldehyde, stained with eosin Y and viewed by fluorescence microscopy. A, B, C Cardiac myocytes after 4 days in culture: control, PE, and PE+IFN-γ, respectively. D, E, F Histographs showing maximum breadth of rod shaped cardiac myocytes versus percent frequency of breadth occurrence. The maximum breadth of rod-shaped cells was determined by fluorescence microscopy and imaging software. At least 200 rod shaped cells from a single experiment were examined per group. […] P<0.001 for all group comparisons. […]
# Isolated adult rat myocytes were plated on laminin-coated plates at a density of 3×10^3 cells/ml. After 72 hours of appropriate stimulation, the cells were fixed with gluteraldehyde and stained with Eosin Y. Images of rod shaped cells were captured under fluorescent microscopy and maximum breadth was determined using imaging software (Simple 32, Compix Imaging, Mars, Pa.).
# [2] = test system: male Sprague/Dawley (SD) rats; assay: Cardiac hypertrophy induced by fluprostenol in vivo: body and organ weights; design: species or system rat
# From the text: This pharmacological model tests the ability of IFN-γ to inhibit cardiac hypertrophy induced in rats (e.g. male Wistar or Sprague-Dawley) by subcutaneous injection of fluprostenol (an agonist analog of PGF2α). It is known that rats with pathologic cardiac hypertrophy induced by myocardial infarction have chronically elevated levels of extractable PGF2α in their myocardium. Lai et al, Am. J. Physiol. (Heart Circ. Physiol.) 271:H2197–H2208 (1996). Accordingly, factors that can inhibit the effects of fluprostenol on myocardial growth in vivo are potentially useful for treating cardiac hypertrophy. The effects of IFN-γ on cardiac hypertrophy are determined by measuring the weight of heart, ventricles, and left ventricle (normalized by body weight) relative to fluprostenol-treated rats not receiving IFN-γ. A detailed description of this assay is provided in the examples.
# Animals All experimental procedures conformed to the guiding principles of the American Physiology Society, and were approved by Genentech's Institutional Animal Care and Use Committee. The animals used in this study were male Sprague/Dawley (SD) rats (8 weeks of age, Charles River Breeding Laboratories, Inc.). The animals were acclimated to the facility for at least one week before experiments, fed a pelleted rat chow and water ad libitum, and housed in a light and temperature controlled room.
# Administration of fluprostenol and/or IFN-γ Rats received subcutaneous injection of fluprostenol (Cayman Chemical, Ann Arbor, Mich.) at 0.15 mg/kg, recombinant mouse IFN-γ (Genentech, Inc., South San Francisco, Calif.) at 0.08 mg/kg, combination of fluprostenol and IFN-γ, or saline vehicle, twice a day for 14 days. In the IFN-γ and fluprostenol+IFN-γ groups, animals were pretreated with IFN-γ for one day. Body weight was measured before and after treatment. A previous study has shown that the dose of fluprostenol used here is the lowest dose which produces a significant cardiac hypertrophy in rats. Lai et al., supra.
# Measurement of organ weights Under anesthesia with ketamine/xylazine, the heart, kidney, and spleen were removed, dissected and weighed. The left ventricle was stored at […] for evaluation of gene expression.
# Statistical analyisis Results are expressed as mean±SEM. One way analysis of variance (ANOVA) was performed to assess differences in parameters between groups. Significant differences were then subjected to post hoc analysis using Newman-Keuls method; P<0.05 was considered significant.
# [3] = IFN-γ 0.08 mg/kg s.c. twice a day, rats
# [4] = s.c. twice a day for 14 days, fluprostenol 0.15 mg/kg, IFN-γ 0.08 mg/kg, mean ± SEM
substance,measurement,setting,value
"IFN-γ: recombinant mouse IFN-γ (Genentech, Inc., South San Francisco, Calif., or Genzyme, Cambridge, Mass.)",Inhibition of phenylephrine-induced myocyte spreading,[1],can also inhibit spreading induced by phenylephrine
same,"Ratio of heart, ventricular, and left ventricular weights to body weight (FIG. 4)","[2]; 14 days, fluprostenol and IFN-γ alone vs vehicle, fluprostenol+IFN-γ vs fluprostenol group",did not significantly alter
same,"Effect on body weight, pilot study",[2]; [3],little effects on body weight
same,"Effect on fluprostenol-induced cardiac hypertrophy, pilot study",[2]; [3],inhibited fluprostenol-induced cardiac hypertrophy
same,"BWO, basal levels of body weight","[2]; before treatment, mean ± SEM",292.5 ± 3.2 g
same,"BW, body weight post treatment",[2]; [4],380.8 ± 6.1 g
same,"HW, heart weight",[2]; [4],.956 ± .029 g
same,"KW, kidney weight",[2]; [4],1.327 ± .035 g
same,"KW/BW, kidney weight to body weight",[2]; [4],3.483 ± .069 g/kg
same,"LVW, left ventricular weight",[2]; [4],.696 ± .023 g
same,"SW, spleen weight",[2]; [4],.924 ± .068 g
same,"SW/BW, spleen weight to body weight",[2]; [4],2.415 ± .149 g/kg
same,"VW, ventricular weight",[2]; [4],.914 ± .029 g
same,"ΔBW, BW-BWO",[2]; [4],88.3 ± 5.0 g

# — US6989364B1, “Methods for treating cardiac hypertrophy by administering IFN-γ” (Genentech, Inc., priority 1998, dated 2006)
